{"source": "paper PMC8187723", "molecular_target": "recombinant human MXRA8-Fc fusion protein (UniProt Q9BRK3)", "conditions": "37 °C; n = 2; parent: est. 19; read off a plot"}
{"substance": "Ross River virus T48, CPER-recovered wild type, purified virus (E1/E2 envelope glycoproteins on the virion) E2:H64W", "values": [{"measurement": "Kd", "result": 66, "unit": "nM"}]}
